Source: patent US20200199204A1 (UNITED STATES OF AMERICA AS REPRESENTED BY THE SECRETARY …, published 2020)

What was measured:
Assay in all cases: cell-based or functional assay
[1] = biological target: SIV Env of SIVmac251.30 (nonHIV control), on Env-pseudovirus (SIVmac251.30)
[2] = biological target: HIV-1 Env of strain TH976.17 (clade AE), on Env-pseudovirus (HIV-1 strain TH976.17)
[3] = biological target: HIV-1 Env of strain CNE3 (clade AE), on Env-pseudovirus (HIV-1 strain CNE3)
[4] = biological target: HIV-1 Env of DU172.17 (HIV-1)
[5] = biological target: HIV-1 Env of 96ZM651.02 (HIV-1)
[6] = biological target: HIV-1 Env of TRJO.58 (HIV-1)
[7] = biological target: HIV-1 Env of ZM249.1 (HIV-1)
[8] = biological target: HIV-1 Env of TRO.11 (HIV-1)
[9] = biological target: HIV-1 Env of Q23.17 (HIV-1)
[10] = biological target: HIV-1 Env of Q259.d2.17 (HIV-1)
[11] = biological target: HIV-1 Env of CAP45.G3 (HIV-1)
[12] = biological target: HIV-1 Env of PVO.04 (HIV-1)
[13] = biological target: HIV-1 Env of RHPA.7 (HIV-1)
[14] = biological target: HIV-1 Env of 191821.E6.1 (HIV-1)
[15] = biological target: HIV-1 Env of CM244.ec1 (HIV-1)
[16] = biological target: HIV-1 Env of WITO.33 (HIV-1)
[17] = biological target: HIV-1 Env of TH976.17 (HIV-1)
[18] = biological target: HIV-1 Env of CAP256.PI (HIV-1)
[19] = biological target: HIV-1 Env of MB201 (HIV-1)
[20] = biological target: HIV-1 Env of RW020.2 (HIV-1)
[21] = biological target: HIV-1 Env of CAAN.A2 (HIV-1)
[22] = biological target: HIV-1 Env of CAP210.E8 (HIV-1)
[23] = biological target: HIV-1 Env of ZM135.10a (HIV-1)
[24] = biological target: HIV-1 Env of Q461.e2 (HIV-1)
[25] = biological target: HIV-1 Env of REJO.67 (HIV-1)
[26] = biological target: HIV-1 Env of DU156.12 (HIV-1)
[27] = biological target: HIV-1 Env of ZM53.12 (HIV-1)
[28] = biological target: HIV-1 Env of ZM214.15 (HIV-1)
[29] = biological target: HIV-1 Env of ZM197.7 (HIV-1)
[30] = biological target: HIV-1 Env of ZM233.6 (HIV-1)
[31] = biological target: HIV-1 Env of 6535.3 (HIV-1)
[32] = biological target: HIV-1 Env of C1080.c3 (HIV-1)
[33] = biological target: HIV-1 Env of CAP244.D3 (HIV-1)
[34] = biological target: HIV-1 Env of 3016.V5.c36 (HIV-1)
[35] = biological target: HIV-1 Env of CAP256.SU (HIV-1)
[36] = biological target: HIV-1 Env of KER2018.11 (HIV-1)
[37] = biological target: HIV-1 Env of 0260.v5.c36 (HIV-1)
[38] = biological target: HIV-1 Env of CNE3 (HIV-1)
[39] = biological target: HIV-1 Env of BG505.w6m (HIV-1)
[40] = biological target: HIV-1 Env of QH0692.42 (HIV-1)
[41] = biological target: HIV-1 Env of Q769.d22 (HIV-1)
[42] = biological target: HIV-1 Env of AC10.29 (HIV-1)
[43] = biological target: HIV-1 Env of THRO.18 (HIV-1)
[44] = biological target: HIV-1 Env of SC422.8 (HIV-1)
[45] = biological target: HIV-1 Env of Q842.d12 (HIV-1)
[46] = biological target: HIV-1 Env of UG037.8 (HIV-1)
[47] = biological target: HIV-1 Env of DU422.01 (HIV-1)
[48] = biological target: HIV-1 Env of KER2008.12 (HIV-1)
[49] = biological target: HIV-1 Env of MB539.2B7 (HIV-1)
[50] = biological target: HIV-1 Env of 6405.v4.c34 (HIV-1)
[51] = biological target: HIV-1 Env of ZM109.4 (HIV-1)
[52] = biological target: HIV-1 Env of Q168.a2 (HIV-1)

B1: CAP256-VRC26.10 (antibody, V domains shown)
VH: QAILVESGGGVVQPGRSLRLSCAASQFTFSGHGLHWVRQAPGKGLEWVASISFAGTKMDYADSVKGRFAISRDNSKNTLYLQMNSLRVEDTALYYCAKDMREYECEYWTSDYYDFGRPQPCIDRRGVVGIFDMWGQGTMVTVST
VL: QSVLTQPPSVSAAPGQKVTISCSGSSSNIGDNYVSWYQHLPGTAPKLLIYENTRRPSGIPDRFSGSKSGTSATLAITGLQTGDEADYYCGTWDVRPNRGAVFGTGTKVTVLG
[1]
  IC50, neutralization of Env-pseudovirus (TZM-bl assay): > 50 µg/mL
[2]
  IC50, neutralization of Env-pseudovirus (TZM-bl assay): > 50 µg/mL
[3]
  IC50, neutralization of Env-pseudovirus (TZM-bl assay): > 50 µg/mL

B2: CAP256-VRC26.12 (antibody, V domains shown)
VH: EVQLVQSGGGVVQPGRSLRLSCAAPYFEFGRYGFHWVRQAPGKGLEWVASISFAGRDYYHSPSVWGRFTISRDNSKNTLYLQMNSLRIEDTALYFCARDLRESECEEWESDYYDFGKKGPCVKPRGVAGGLDLWGQGTMVIVSS
VL: QSVLTQPPSVSTAPGQTVTVSCSGGTSNTGNNFVSWYQHLPGTAPKLLIYENNKRPLGVPDRFSGAKSGTSATLAITGLQTGDEGDYYCATWSGSLNIGTGTKVSVLG
[2]
  IC50, neutralization of Env-pseudovirus (TZM-bl assay): > 50 µg/mL
[3]
  IC50, neutralization of Env-pseudovirus (TZM-bl assay): > 50 µg/mL

B3: CAP256-VRC26.08 (antibody, V domains shown)
VH: EVQLVESGGGVVQPGRSLTLSCAASQFTFSNYGMHWVRQAPGKGLEWVASVSNDGTKKYHGDSVWGRFTISRDNSKNTLFLQMSSLRAEDTAVYFCVRDQREDECEEWWSDYYDFGRELPCRKFRGLGLAGIFDIWGHGTMVTVSS
VL: QSALTQPPSVSAAPGQKVTISCSGNSSNIGNNFVSWYQQVPGTAPKLLLYETYRRPSGIPDRFSGSKSGTSATLAITGLQTGDEADYYCTVWGVRKGVGAVFGTGTKVTVLG
[1]
  IC50, neutralization of Env-pseudovirus (TZM-bl assay): > 50 µg/mL
[2]
  IC50, neutralization of Env-pseudovirus (TZM-bl assay): > 50 µg/mL
[3]
  IC50, neutralization of Env-pseudovirus (TZM-bl assay): > 50 µg/mL

B4: CAP256-VRC26.09 (antibody, V domains shown)
VH: EVQLVESGGGVVQPGRSLTLSCAASQFNFANYGMHWVRQAPGKGLEWVASISNDGTKKYHEESVWGRFTISKDNSKSTLFLQMNSLRIEDTALYFCVKDQREDECEEWWSDYYDFGRELPCRKSRGLGLAGIFDMWGHGTMVTVSS
VL: QSALTQPPSVSAAPGQKVTISCSGNSSNIGNNFVSWYQQLPGTAPKLLIYENNRRPSGIPDRFSGSKSGTSATLAISGLQTGDEADYWCAVWGVRRGAGAVFGAGTKVTVLG
[1]
  IC50, neutralization of Env-pseudovirus (TZM-bl assay): > 50 µg/mL
[2]
  IC50, neutralization of Env-pseudovirus (TZM-bl assay): > 50 µg/mL
[3]
  IC50, neutralization of Env-pseudovirus (TZM-bl assay): > 50 µg/mL

B5: CAP256-VRC26.11 (antibody, V domains shown)
VH: EVQLVESGGGVVPPGKSLTLSCVASRFTFSAFGMHWVRQAPGKGLEWVASISFAGIKKYYADSVKGRFSISRDNSNTLFLQMNGLRGEDTGLYHCVKDMRELECEEWASDYYDFGKPQPCLDRRGVSGISAWWGPGTMVTVSS
VL: QSVLTQPPSVSAAPGQNVTISCSGPPSHIEKNDVSWYQRLPGMAPKMVIYESKRRPLGIPVRFSASRSGSSATLVITGLQTADEADYYCGTWDGRMNFGTGTTVSVLG
[2]
  IC50, neutralization of Env-pseudovirus (TZM-bl assay): > 50 µg/mL
[3]
  IC50, neutralization of Env-pseudovirus (TZM-bl assay): > 50 µg/mL

B6: CAP256-VRC26.07 (antibody, V domains shown)
VH: EVQLVESGGGVVQPGRSLRLSCVGSQFSFNRYGMHWVRQAPGKGLEWVAGISFDGTDRYHADNVWGRFTISRDNSKNTLYLQMSSLRAEDTALYYCAKDLREDECEEWWSDYYDFGKKLPCRKSRGVAGVFDKWGQGTMVTVSS
VL: QAVLTQPPSVSAAPGQNVTISCSGSGSNIGNNFVSWYQQRPGTAPKLLIYESNKRPSGIPDRFSGSKSGTSATLAITGLQTGDEAYYYCATWAARLNSARVFGTGTMVTVLG
[2]
  IC50, neutralization of Env-pseudovirus (TZM-bl assay): > 50 µg/mL
[3]
  IC50, neutralization of Env-pseudovirus (TZM-bl assay): > 50 µg/mL

B7: CAP256-VRC26.04 (antibody, V domains shown)
VH: EVQLVESGGGVVQPGKSLRLSCAASQFSFNRYGMHWVRQAPGKGLEWVAAISYDGTDKYHADKVWGRFTISRDNSKNTLYLQMNSLRAEDTALYYCAKDLREDECEEWWSDYYDFGKQLPCRKSRGVAGIFDKWGQGTMVIVSS
VL: QPVLTQPPSVSAAPGQKVTISCSGSSSNIGNNFVSWYQQRPGTAPSLLIYETNKRPSGIPDRFSGSKSATSATLAITGLQTGDEADYYCATWAASLTSARVFGTGTKVIVSG
[4]
  neutralization IC50: > 50 µg/mL
[5]
  neutralization IC50: > 50 µg/mL
[6]
  neutralization IC50: > 50 µg/mL
[7]
  neutralization IC50: 11.4 µg/mL
[8]
  neutralization IC50: > 50 µg/mL
[9]
  neutralization IC50: 23.6 µg/mL
[10]
  neutralization IC50: 0.025 µg/mL
[11]
  neutralization IC50: > 50 µg/mL
[12]
  neutralization IC50: > 50 µg/mL
[13]
  neutralization IC50: > 50 µg/mL
[14]
  neutralization IC50: > 50 µg/mL
[15]
  neutralization IC50: 0.361 µg/mL
[16]
  neutralization IC50: > 50 µg/mL
[17]
  neutralization IC50: > 50 µg/mL
[18]
  neutralization IC50: > 50 µg/mL
[19]
  neutralization IC50: > 50 µg/mL
[20]
  neutralization IC50: > 50 µg/mL
[21]
  neutralization IC50: > 50 µg/mL
[22]
  neutralization IC50: 0.005 µg/mL
[23]
  neutralization IC50: > 50 µg/mL
[24]
  neutralization IC50: > 50 µg/mL
[25]
  neutralization IC50: > 50 µg/mL
[26]
  neutralization IC50: 10.4 µg/mL
[27]
  neutralization IC50: 0.004 µg/mL
[28]
  neutralization IC50: > 50 µg/mL
[29]
  neutralization IC50: 0.254 µg/mL
[30]
  neutralization IC50: 0.06 µg/mL
[31]
  neutralization IC50: > 50 µg/mL
[32]
  neutralization IC50: 0.212 µg/mL
[33]
  neutralization IC50: > 50 µg/mL
[34]
  neutralization IC50: 0.283 µg/mL
[35]
  neutralization IC50: 0.003 µg/mL
[36]
  neutralization IC50: 0.008 µg/mL
[37]
  neutralization IC50: > 50 µg/mL
[38]
  neutralization IC50: > 50 µg/mL
[39]
  neutralization IC50: 8.43 µg/mL
[40]
  neutralization IC50: > 50 µg/mL
[41]
  neutralization IC50: > 50 µg/mL
[42]
  neutralization IC50: > 50 µg/mL
[43]
  neutralization IC50: > 50 µg/mL
[44]
  neutralization IC50: > 50 µg/mL
[45]
  neutralization IC50: > 50 µg/mL
[46]
  neutralization IC50: > 50 µg/mL
[47]
  neutralization IC50: 4.17 µg/mL
[48]
  neutralization IC50: > 50 µg/mL
[49]
  neutralization IC50: > 50 µg/mL
[50]
  neutralization IC50: > 50 µg/mL
[51]
  neutralization IC50: > 50 µg/mL
[52]
  neutralization IC50: > 50 µg/mL
